# The supplement of paper PMC9170038
# System: K4 kissing-loop RNA reporter
# Test: apparent KD of K4 kissing-loop reporter; higher = weaker reporter binding
# Settings: Eterna round: R107; input ligand: FMN 200 uM
# Method: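 RNA-MaP round R107: designed RNA switches with theophylline, tryptophan, arginine or FMN aptamers are transcribed on-chip within common flanks. They are titrated with a labelled K4 kissing-loop RNA reporter in RNA-MaP buffer (100 mM Tris pH 7.5, 80 mM KCl, 4 mM MgCl2), without ligand or with the indicated ligand. Median apparent KD per design.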
# 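Further: bound reporter read as fluorescence of individual clusters on recovered sequencing chips by microscopy, with normalized cluster intensities fitted with a binding model.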
row,Sequence,apparent KD of K4 kissing-loop reporter [nM]
1,AAGUCAUAGGCAGGAUAUGCAUAGUAAUAAGGCCAUAUAUACGUAUAGAGUGAUGUUUUGUACCAGGCAGAAGGGCUACAUCAGU [FMN B Excl V7 (+3A)],550
2,UCUCAUCUCAGAAGGAGCGUGAGAGAAUAUUAGAAAUCGUCGAGUGAUGUUCGACGUCUCUCACAGGUAGGUCGCUGAGACGUCA [Arg B SS t9],111
3,UCUUUUGGCAUGGAUAGAAUGCCGACCGAUACCAGCAAAGUAGGAUGCCCUUGGCAGCGGAGUGAUGUUCCAUUGUCGCGGUUUG [theeternabot_exclusion_KL_Theo_A_48],82.7
4,GUCUGUGUACUAGGAUAUGGUUGCAGACAGUCAGGUCGCCUUUUCGGCGGCCAGUGAUGUUGGUGGCCAGAAGGAGUACGUGAAG [Biririge],384
5,UGUGUACCGGGAAGGAGCGUGAAUGAGAAUGGAUAUAGUGAUGUUAUGUAUACGAACGAAUCGCAGGUAGGUCGCCCGGAUCCCU [SSArgB.Z],513
6,GAUUUAGAGGCGGCCGCCACUAGUGAUGUUAGUGAUGUUUGAUACUGAAUAUAUCUGCGUGUAGAUAGGACCGGGCCAGAUGGAG [eyerullin],210
7,AAAAGAAAGUCGGCCGCCACUCAACGCAGUGAUGUUGCAAGACAGAAGACCAGUGAUGUUGGCCAGAGGACCGGGACAAAAGGCC [Same State Typtophan B GF 4],591
8,"CACGAUGAAUUCUCUAGGAGUGAUGUUUUUCGAGGACCGGUACGGCCGCCACUCGGACGACGAGCGUGGUAGCGGCCUGAAGACU [,omullin]",743
9,AUGUAUGAAUUAGGAUAUCGUUAGCCUAUCAUAUAUAUGAUAAAUGGAUAUGUCGUAGUGAUGUUACGAGAAGGAGUGUGGAGUA [KL-XFMN-B7],55.8
10,AAGGGCGGAACAACCUCGCCGGAUAGAGAUACCAGCCCAGCAAUGGGCCCUUGGCAGCUCACUGACCUCAGUGAUGUUGAGGUUC [Laar],243
11,AGUAAUAUCACGGCCGCCACUGAUUAUUGUUUUUAUAGUUAUAAAUCUUGCCAGUGAUGUUGGUUCAGGACCGGGUGAGUUAAUA [JR_SSTryptoB_Sub001],429
12,CCGUGGAGUGAUGUUCCACGUUCUACGGAUACCAGCCACGCCAGCGGCCCUUGGCAGCCGCACCUUGCAGUGAUGUUGUGAGGCU [Same State Theophylline A GF 5],365
13,UGUUACCAGUGAUGUUGGGAGAUGAAGAGCAAGGAUAUGUGAUAGUACAGAAGGUGCGUCGUCGUGAUUAUCACGCUCUGUGUUA [theeternabot_exclusion_KL_FMN_A_8],266
14,GCCUAGGCUCGAAAGAGCCUAGGCUUUACUCAGGAUAUCUGGAAACAGAGAAGGGAGCUACUAGUGAUGUUAGGAAUUCCCUAAG,45.9
15,UUAAUUAAGACGGCCGCCACUGAAUUAGAGUGAUGUUCUAAAAUUACUAAAUUAAAUUUAUUCAACAGGACCGGGUCAAUUAUUA [JR_SSTryptoB_Sub009],516
16,UGACUGGAUGGAAGGAGCGCUAAACUCCUAGUGAUGUUAGGGAAAUGAGGCAAAGCCUCGAGGCAGGUAGGUCGCCAUCUAGUCU [FiskerMod 18 - Jieux - Same State - Arginine B],160
17,GUAGACGUACCUUCAGUGAUGUUGAAGGAUACCAGAUGUUACCACAUCCCUUGGCAGCCUUGGGAUAACAGUGAGUUGGAAUAUG [Usrite],182
18,UGGACAUGACUCGAUAAGAGUCAAUGGGAUACCAGUGACGAAAGUCACCCUUGGCAGCUCAACUGCCAGUGAUGUUGGUAGUCCA [Astros-Elo-mod#2],231

# Same assay, conditions: Eterna round: R107; input ligand: arginine 13.2 mM
row,Sequence,apparent KD of K4 kissing-loop reporter [nM]
1,AAGUCAUAGGCAGGAUAUGCAUAGUAAUAAGGCCAUAUAUACGUAUAGAGUGAUGUUUUGUACCAGGCAGAAGGGCUACAUCAGU [FMN B Excl V7 (+3A)],506
2,UCUCAUCUCAGAAGGAGCGUGAGAGAAUAUUAGAAAUCGUCGAGUGAUGUUCGACGUCUCUCACAGGUAGGUCGCUGAGACGUCA [Arg B SS t9],107
3,UCUUUUGGCAUGGAUAGAAUGCCGACCGAUACCAGCAAAGUAGGAUGCCCUUGGCAGCGGAGUGAUGUUCCAUUGUCGCGGUUUG [theeternabot_exclusion_KL_Theo_A_48],91.3
4,GUCUGUGUACUAGGAUAUGGUUGCAGACAGUCAGGUCGCCUUUUCGGCGGCCAGUGAUGUUGGUGGCCAGAAGGAGUACGUGAAG [Biririge],1580
5,UGUGUACCGGGAAGGAGCGUGAAUGAGAAUGGAUAUAGUGAUGUUAUGUAUACGAACGAAUCGCAGGUAGGUCGCCCGGAUCCCU [SSArgB.Z],320
6,GAUUUAGAGGCGGCCGCCACUAGUGAUGUUAGUGAUGUUUGAUACUGAAUAUAUCUGCGUGUAGAUAGGACCGGGCCAGAUGGAG [eyerullin],171
7,AAAAGAAAGUCGGCCGCCACUCAACGCAGUGAUGUUGCAAGACAGAAGACCAGUGAUGUUGGCCAGAGGACCGGGACAAAAGGCC [Same State Typtophan B GF 4],945
8,"CACGAUGAAUUCUCUAGGAGUGAUGUUUUUCGAGGACCGGUACGGCCGCCACUCGGACGACGAGCGUGGUAGCGGCCUGAAGACU [,omullin]",225
9,AUGUAUGAAUUAGGAUAUCGUUAGCCUAUCAUAUAUAUGAUAAAUGGAUAUGUCGUAGUGAUGUUACGAGAAGGAGUGUGGAGUA [KL-XFMN-B7],62.9
10,AAGGGCGGAACAACCUCGCCGGAUAGAGAUACCAGCCCAGCAAUGGGCCCUUGGCAGCUCACUGACCUCAGUGAUGUUGAGGUUC [Laar],220
11,AGUAAUAUCACGGCCGCCACUGAUUAUUGUUUUUAUAGUUAUAAAUCUUGCCAGUGAUGUUGGUUCAGGACCGGGUGAGUUAAUA [JR_SSTryptoB_Sub001],469
12,CCGUGGAGUGAUGUUCCACGUUCUACGGAUACCAGCCACGCCAGCGGCCCUUGGCAGCCGCACCUUGCAGUGAUGUUGUGAGGCU [Same State Theophylline A GF 5],312
13,UGUUACCAGUGAUGUUGGGAGAUGAAGAGCAAGGAUAUGUGAUAGUACAGAAGGUGCGUCGUCGUGAUUAUCACGCUCUGUGUUA [theeternabot_exclusion_KL_FMN_A_8],98.3
14,GCCUAGGCUCGAAAGAGCCUAGGCUUUACUCAGGAUAUCUGGAAACAGAGAAGGGAGCUACUAGUGAUGUUAGGAAUUCCCUAAG,80.3
15,UUAAUUAAGACGGCCGCCACUGAAUUAGAGUGAUGUUCUAAAAUUACUAAAUUAAAUUUAUUCAACAGGACCGGGUCAAUUAUUA [JR_SSTryptoB_Sub009],435
16,UGACUGGAUGGAAGGAGCGCUAAACUCCUAGUGAUGUUAGGGAAAUGAGGCAAAGCCUCGAGGCAGGUAGGUCGCCAUCUAGUCU [FiskerMod 18 - Jieux - Same State - Arginine B],121
17,GUAGACGUACCUUCAGUGAUGUUGAAGGAUACCAGAUGUUACCACAUCCCUUGGCAGCCUUGGGAUAACAGUGAGUUGGAAUAUG [Usrite],137
18,UGGACAUGACUCGAUAAGAGUCAAUGGGAUACCAGUGACGAAAGUCACCCUUGGCAGCUCAACUGCCAGUGAUGUUGGUAGUCCA [Astros-Elo-mod#2],129

# Same assay, conditions: Eterna round: R107; input ligand: none
row,Sequence,apparent KD of K4 kissing-loop reporter [nM]
1,AAGUCAUAGGCAGGAUAUGCAUAGUAAUAAGGCCAUAUAUACGUAUAGAGUGAUGUUUUGUACCAGGCAGAAGGGCUACAUCAGU [FMN B Excl V7 (+3A)],594
2,UCUCAUCUCAGAAGGAGCGUGAGAGAAUAUUAGAAAUCGUCGAGUGAUGUUCGACGUCUCUCACAGGUAGGUCGCUGAGACGUCA [Arg B SS t9],97.4
3,UCUUUUGGCAUGGAUAGAAUGCCGACCGAUACCAGCAAAGUAGGAUGCCCUUGGCAGCGGAGUGAUGUUCCAUUGUCGCGGUUUG [theeternabot_exclusion_KL_Theo_A_48],86.9
4,GUCUGUGUACUAGGAUAUGGUUGCAGACAGUCAGGUCGCCUUUUCGGCGGCCAGUGAUGUUGGUGGCCAGAAGGAGUACGUGAAG [Biririge],1110
5,UGUGUACCGGGAAGGAGCGUGAAUGAGAAUGGAUAUAGUGAUGUUAUGUAUACGAACGAAUCGCAGGUAGGUCGCCCGGAUCCCU [SSArgB.Z],677
6,GAUUUAGAGGCGGCCGCCACUAGUGAUGUUAGUGAUGUUUGAUACUGAAUAUAUCUGCGUGUAGAUAGGACCGGGCCAGAUGGAG [eyerullin],186
7,AAAAGAAAGUCGGCCGCCACUCAACGCAGUGAUGUUGCAAGACAGAAGACCAGUGAUGUUGGCCAGAGGACCGGGACAAAAGGCC [Same State Typtophan B GF 4],842
8,"CACGAUGAAUUCUCUAGGAGUGAUGUUUUUCGAGGACCGGUACGGCCGCCACUCGGACGACGAGCGUGGUAGCGGCCUGAAGACU [,omullin]",468
9,AUGUAUGAAUUAGGAUAUCGUUAGCCUAUCAUAUAUAUGAUAAAUGGAUAUGUCGUAGUGAUGUUACGAGAAGGAGUGUGGAGUA [KL-XFMN-B7],55.4
